As usually defined, the EC50 is the concentration that produces a half-maximal response. The term IC50 denotes the point on the concentration scale where inhibition reaches its midpoint.

Experiment [1] concerns the target T1, cynomolgus monkey 4-1BB on CHO-K1 cells (cynomolgus monkey).
T1 chain: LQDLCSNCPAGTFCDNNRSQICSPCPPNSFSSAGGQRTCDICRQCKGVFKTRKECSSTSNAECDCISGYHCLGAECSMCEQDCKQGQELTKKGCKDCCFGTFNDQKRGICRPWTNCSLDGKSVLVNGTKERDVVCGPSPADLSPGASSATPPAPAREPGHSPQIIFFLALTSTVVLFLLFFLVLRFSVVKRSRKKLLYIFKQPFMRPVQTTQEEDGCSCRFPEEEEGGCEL
Briefly: FACS; FIG. 12C. For orientation: In flow cytometry, cells or beads pass a laser one at a time.

Experiment [2] concerns the target T1, cynomolgus monkey 4-1BB on CHO-K1 cells. Kind of experiment: FACS.
Experiment [3] has the same target. Briefly: FACS; FIG. 12J.
For experiment [4] the target is unchanged. Kind of experiment: FACS; FIG. 12D.
For experiment [5] the target is unchanged. Briefly: FACS; FIG. 12A.
For experiment [6] the target is unchanged. Kind of experiment: FACS; FIG. 21B.
For experiment [7] the target is unchanged. Briefly: FACS; FIG. 12B.
For experiment [8] the target is unchanged. Briefly: FACS; FIG. 12L.
Experiment [9] has the same target. Briefly: FACS; FIG. 12F.
The target is the same in experiment [10]. Briefly: FACS; FIG. 12E.
Experiment [11] shares this target. Kind of experiment: FACS.
For experiment [12] the target is unchanged. Kind of experiment: FACS; FIG. 12K.
The target is the same in experiment [13]. Kind of experiment: FACS; FIG. 12H.
For experiment [14] the target is unchanged. Briefly: FACS; FIG. 21A.
Experiment [15] shares this target. Kind of experiment: FACS; FIG. 12I.
Experiment [16] deals with T2, human 4-1BB on CHO-K1 cells (human, UniProt Q07011 24-255). Briefly: FACS; FIG. 11F.
Experiment [17] has as its target T2, human 4-1BB on CHO-K1 cells. Briefly: FACS blocking of 4-1BBL; FIG. 14B.
Experiment [18] has the same target. Kind of experiment: FACS; FIG. 11L.
Target sequence in this assay (Q07011 24-255): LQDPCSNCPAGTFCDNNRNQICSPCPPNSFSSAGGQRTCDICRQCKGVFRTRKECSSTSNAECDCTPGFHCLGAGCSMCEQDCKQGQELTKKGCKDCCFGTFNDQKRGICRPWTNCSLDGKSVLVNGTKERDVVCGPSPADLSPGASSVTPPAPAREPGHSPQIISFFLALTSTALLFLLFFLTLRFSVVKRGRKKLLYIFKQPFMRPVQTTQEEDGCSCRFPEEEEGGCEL
The target is the same in experiment [19]. Kind of experiment: FACS; FIG. 11D.
For experiment [20] the target is unchanged. Kind of experiment: FACS; FIG. 11G.
For experiment [21] the target is unchanged. Briefly: FACS blocking of 4-1BBL; FIG. 14A.
Experiment [22] has the same target. Kind of experiment: FACS; FIG. 11C.
Experiment [23] shares this target. Briefly: FACS blocking of 4-1BBL; FIG. 14C.
Experiment [24] has the same target. Kind of experiment: FACS; FIG. 11K.
Target sequence in this assay (Q07011 24-255): as above
For experiment [25] the target is unchanged. Briefly: FACS blocking of 4-1BBL; FIG. 14D.
Experiment [26] has the same target. Briefly: FACS; FIG. 11E.
For experiment [27] the target is unchanged. Kind of experiment: FACS.
Target sequence in this assay (Q07011 24-255): as above
Experiment [28] has the same target. Kind of experiment: FACS; FIG. 11M.
Target sequence in this assay (Q07011 24-255): as above
Experiment [29] has the same target. Briefly: FACS; FIG. 11B.
The target of experiment [30] is T3, human PD-L1 on CHO-K1 cells (human, UniProt Q9NZQ7 19-290). Briefly: FACS; MDA-MB-231 cells; FIG. 24D.
Experiment [31] concerns the target T3, human PD-L1 on CHO-K1 cells. Kind of experiment: FACS; MDA-MB-231 cells; FIG. 24C.
The target is the same in experiment [32]. Kind of experiment: FACS; MDA-MB-231 cells; FIG. 24E.

T3 sequence (Q9NZQ7 19-290): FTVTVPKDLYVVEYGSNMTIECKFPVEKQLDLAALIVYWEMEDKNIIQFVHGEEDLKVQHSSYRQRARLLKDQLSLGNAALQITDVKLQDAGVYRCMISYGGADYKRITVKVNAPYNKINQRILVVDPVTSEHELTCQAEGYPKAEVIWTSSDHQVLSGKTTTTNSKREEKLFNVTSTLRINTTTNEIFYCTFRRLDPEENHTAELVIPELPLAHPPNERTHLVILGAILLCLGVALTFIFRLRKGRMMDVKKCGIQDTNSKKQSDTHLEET

B1: Utomilumab (antibody, V domains shown)
VH: EVQLVQSGAEVKKPGESLRISCKGSGYSFSTYWISWVRQMPGKGLEWMGKIYPGDSYTNYSPSFQGQVTISADKSISTAYLQWSSLKASDTAMYYCARGYGIFDYWGQGTLVTVSS
VL: SYELTQPPSVSVSPGQTASITCSGDNIGDQYAHWYQQKPGQSPVLVIYQDKNRPSGIPERFSGSNSGNTATLTISGTQAMDEADYYCATYTGFGSLAVFGGGTKLTVLG
For the molecule B1, the EC50 in [1] came to 3.46 nM; in experiment [2] it was 0.337 nM; in [3], 0.435 nM; in [4], 3.46 nM; in experiment [5], 3.46 nM; in [6] it was 0.984 nM. The EC50 is 3.46 nM in [7]; 0.425 nM in experiment [8]; 3.46 nM in experiment [9]; 3.46 nM in [10]; 0.347 nM in [11]; 0.503 nM in [12]. In addition, the results for the EC50 in [13], in experiment [14] and in experiment [15] were 0.393 nM, 1.34 nM and 0.378 nM, respectively.

B2: Urelumab (antibody, V domains shown)
VH: QVQLQQWGAGLLKPSETLSLTCAVYGGSFSGYYWSWIRQSPEKGLEWIGEINHGGYVTYNPSLESRVTISVDTSKNQFSLKLSSVTAADTAVYYCARDYGPGNYDWYFDLWGRGTLVTVSS
VL: EIVLTQSPATLSLSPGERATLSCRASQSVSSYLAWYQQKPGQAPRLLIYDASNRATGIPARFSGSGSGTDFTLTISSLEPEDFAVYYCQQRSNWPPALTFGGGTKVEIKR
With B2, the EC50 was determined as 0.222 nM in experiment [16]; 0.565 nM in experiment [18]; 0.222 nM in experiment [19]; 0.222 nM in [20]; 0.222 nM in experiment [22]; 0.583 nM in experiment [24]. Besides, the EC50 in experiment [26] came to 0.222 nM; in [27], 0.222 nM; in experiment [28], 0.55 nM; in [29] it was 0.222 nM. The half-inhibitory concentration (IC50) in experiment [17] was 1.5 nM; in experiment [21], roughly 2.53 nM; in experiment [23] it was 2.41 nM; in [25], 2.37 nM.

B3: PR000265 (antibody, V domains shown)
VH: EVQLVESGGGLVQPGGSLRLSCAASGFTFSSYWMSWVRQAPGKGLEWVANIKQEGSEKYYVDSVKGRFTISRDNAKNSLYLQMNSLRAEDTAVYYCARDRAVAGAFDIWGQGTMVTVSS
VL: DIQMTQSPSTLSASVGDRVTVTCRASQSIYIWLAWYQQKPGKAPNLLIYKASSLETGVPSRFSGSGSGTEFTLTISSLQPDDFATYYCQQYYGSSRTFGQGTKVEIKR
As for B3, the values for the 50% effective concentration (EC50) in experiment [30], in experiment [31] and in [32] were 0.233 nM, 0.11 nM and 0.233 nM, respectively.
